Measurements from publication PMC3762189, “Mechanism of synergistic activation of Arp2/3 complex by cortactin and N-WASP” (eLife, 2013).

Target: G-actin (rabbit muscle actin monomers) (rabbit, UniProt P68135 1-377)
Assay: fluorescence polarisation; competition: anisotropy of 50 nM Rhodamine-VCA with 150 nM G-actin and increasing VCA or VCA mutants; 10 mM Hepes pH 7.0, 50 mM KCl, 1 mM MgCl2, 1 mM EGTA, 1 mM DTT, 0.2 mM ATP, 350 nM Latrunculin B; KD is the mean of at least three fits
Conditions: both partners purified

- Kd: 560 ± 30 nM
B1: N-WASP-VCA (domain or fragment)
chain: PVSCSGRDALLDQIRQGIQLKSVTDAPESTPPAPAPTSGIVGALMEVMQKRSKAIHSSDEDEDEDDDEDFEDDDEWED
notes: N-WASP, VCA region (verprolin homology, central, acidic); The text implies a GST tag with a TEV site on the VCA constructs; also called monomeric VCA; WT; source: purified as described previously (Hetrick et al., 2013)
